Measured values from US20200277373A1, “ANTI-TREM2 ANTIBODIES AND METHODS OF USE THEREOF” (Denali Therapeutics Inc., priority 2017, published 2020).

B1: 3D3.A1: anti-TREM2 antibody clone; VH SEQ ID NO:18, VL SEQ ID NO:29 (antibody, V domains shown)
VH: EVQLQQSGPELVKPGASVKISCKTSGYTLSEYTMHWVIQSHGKSLEWIGGVIPNSGGTSYNQKFRDKASLTVDKSSSTAYLELRSLTSEDSAVYYCARGDDSYRRGYALDYWGQGTSVTVSS
VL: DIVMSQSPSSLAVSVGEKVTMSCKSSQSLLYSSNQKSYLAWYQQKPGQSPKLLIYWASTRESGVPDRFRGSGSGTDFTLTISSVKAEDLAVYYCQQYFSYPPTFGGGTKLEIK
B2: 21D11: anti-TREM2 antibody clone; VH SEQ ID NO:14, VL SEQ ID NO:25 (antibody, V domains shown)
VH: QVQLQQSGAELARPGASVKLSCKASGYTFTSYWIQWVKQRPGQGLEWIGTIYPGDGDARYTQKFKGKATLTADKSSSTTYMQLNSLASEDSAVYYCARNGITTAGYYAMDYWGQGTSVTVSS
VL: DIQMTQSPASLSVSVGETVTITCRASENIYSNLAWYQQKQGRSPQLLVYAATNLADGVPSRFSGSGSGTQYSLKINSLQSEDFGYYYCQHFWGTPYTFGGGTKVEIK
B3: RS9.F6: anti-TREM2 antibody clone; VH SEQ ID NO:24, VL SEQ ID NO:35 (antibody, V domains shown)
VH: QVQLQQPGAELVKPGASVKLSCKASGYTFTSYWMHWVKQSPGRGLEWIGRSDPTTGGTNYNEKFKTKATLTVDKPSSTAYMQLSSLTSDDSAVYYCVRTSGTGDYWGQGTSLTVSS
VL: DVVMTQTPLSLPVSLGDQASISCRSSQSLVHNNGNTFLHWYLQKPGQSPKLLIYKVSNRFSGVPDRFSGSGSGTDFTLKISRVEAEDLGVYFCSQTTHVPPTFGGGTKLEIK

Legend:
hTREM2 [1] = target: T1, hTREM2 (Homo sapiens, UniProt Q9NZC2); experiment: Octet binning (competition with R&D antibody on biotinylated TREM2-His); format: binding; details: epitope bin, 100 nM
T1 construct: The ecto domain (residues 19-172) of TREM2 (UniProtKB—Q9NZC2); secretion signal of mouse Ig kappa chain V-III (P01661 aa 1-20) (N); made in house; host or cells: Expi293F
T1 sequence (Q9NZC2 19-172): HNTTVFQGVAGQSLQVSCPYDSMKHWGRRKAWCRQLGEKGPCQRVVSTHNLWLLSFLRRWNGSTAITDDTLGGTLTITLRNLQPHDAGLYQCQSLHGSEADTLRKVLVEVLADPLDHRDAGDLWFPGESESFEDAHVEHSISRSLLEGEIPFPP
Method: Competition with R&D antibody was done by Octet Red using biotinylated human Trem2-His protein generated in house. Biotinylated human TREM2-His protein was captured on a streptavidin tip, and the tip was then incubated in either 100 nM of R&D Ab or buffer for 3 minutes, followed by incubation for 3 minutes in 100 nM of testing hybridoma. The difference of hybridoma binding curve with or without pre-binding to R&D antibody was analyzed to determine the epitope.

TREM2 = target: T2, TREM2 (Homo sapiens, UniProt Q9NZC2); experiment: TREM2 PAM/pSyk assay on human macrophages; format: cell-based; details: for effect on lipid ligand activation of TREM2 (in words): FIG. 9B, human macrophages; for Slope + Liposome: pSyk, 10 nM antibody with 0, EC20, EC50, EC80 PS/PC liposomes, liposome-alone signal subtracted
T2 construct: macrophage cells that endogenously express TREM2; endogenous in cells; host or cells: primary human monocyte-derived macrophages from donor blood
T2 sequence (Q9NZC2 19-230): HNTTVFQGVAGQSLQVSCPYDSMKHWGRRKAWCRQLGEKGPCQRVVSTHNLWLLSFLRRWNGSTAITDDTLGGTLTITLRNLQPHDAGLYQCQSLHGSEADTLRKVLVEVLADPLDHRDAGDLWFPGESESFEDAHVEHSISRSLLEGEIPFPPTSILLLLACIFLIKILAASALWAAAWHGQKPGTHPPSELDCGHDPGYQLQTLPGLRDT
Method: Human macrophages were differentiated from donor blood using a human monocyte enrichment cocktail (Stem Cell Technologies) and culturing monocytes with human mCSF for five days in macrophage media (RPMI+10% Hyclone FBS+Glutamax+Pen/Strep+non-essential amino acids+sodium pyruvate). On the fifth day, the human macrophages were scraped from the flasks and were re-plated at 100,000 cells/well on a 96-well poly-D-lysine-coated plate in the macrophage media (without mCSF). The cells were incubated for 24 hours to adhere, then the media was removed.
Antibodies pre-mixed with lipid vesicles comprised of 70% DOPC and 30% POPS (made according to the procedure for making vesicles described above) diluted in HBSS were immediately added to the cells, and allowed to incubate for 5 minutes at 37° C. The liposome/antibody solution was removed, and 35 μL lysis buffer (Cell Signaling Technologies, CST) was added using the liquid handler. The lysate was then incubated at 4° C. for 30 minutes, then either frozen at −80° C. or immediately carried forward to a pSyk AlphaLISA assay as described above. […] The results of the assay are shown in FIG. 9B and in Table 8 below.

hTREM2 [2] = target: T1, hTREM2; experiment: Biacore T200 binding kinetics to hTREM2; details: analyte hTREM2
Method: The binding of the TREM2/TfR-binding protein RS9.F6/3C35.21.17 to TREM2 and TfR was measured using SPR on a Biacore T200 instrument. To measure TfR binding, anti-human-Fab was immobilized on a CM5 chip, and the TREM2/TfR-binding protein was captured. Full-length human TfR or human TfR apical domain at serial dilution (e.g., concentrations of 1-1000 nM) was flowed over the chip (180 second association time) and then allowed to dissociate. Fitting was performed using a 1:1 binding model. To measure TREM2 binding, anti-human-Fc antibody was immobilized on a CM5 chip, and the TREM2/TfR-binding protein was captured. A range of concentrations of recombinant TREM2-His protein were flowed over the chip, and allowed to associate and dissociate. The resulting sensograms were fitted using a 1:1 Langmuir model to estimate kon and koff (FIG. 10).
The affinities of RS9.F6/3C35.21.17 for human TREM2 and TfR were determined by surface plasmon resonance using a Biacore™ T200. Biacore Series S CM5 sensor chips were immobilized with a mixture of two monoclonal mouse anti-Fab antibodies (Human Fab capture kit from GE Healthcare). Serial 3-fold dilutions of each antigen were injected at a flow rate of 30 μL/min. The binding of the antigens to captured antibody was monitored for 30 to 180 seconds and then their dissociation was monitored for 30-300 seconds in HBS-EP+running buffer (GE, # BR100669). Binding response was corrected by subtracting the RU from a blank flow cell. A 1:1 Languir model of simultaneous fitting of kon and koff was used for kinetics analysis.

soluble TREM2 (sTREM2) = target: T3, soluble TREM2 (sTREM2) (Homo sapiens, UniProt Q9NZC2); experiment: Soluble TREM2 (TREM2 shedding) assay in HEK293 TREM2/DAP12 cells; format: cell-based; design: key to STREM2: NC = no change; −− = reduced sTREM2; ++ = increased sTREM2; details: change in sTREM2 levels
T3 construct: expressed in transfected cells
Method: HEK293 cells stably expressing human TREM2 and DAP12 were plated onto 96-well plates pre-coated with poly-D-lysine 4-16 hours prior to antibody treatment. Antibody supernatants or control antibodies were diluted into fresh complete media and added onto cells in triplicate. Cells were incubated with antibody containing media for 18 hours prior to removal of the cell supernatant for assay by TREM2 ELISA. Samples and standards were diluted 1:10 into blocking buffer (3% BSA/TBST) in the assay plate. Briefly, MSD small spot streptavidin plates were coated with biotinylated anti-hTREM2 polyclonal antibody (R&D Systems) overnight at 4° C. or 1 hour at room temperature. Plates were then blocked overnight at 4° C., or 1 hour at room temperature, with blocking buffer, 3% BSA/TBST. Plates were washed three times with TBST in a Biotek plate washer (used for all washes) prior to addition of diluent (blocking buffer) and denatured supernatants from cell culture. A TREM2-His protein diluted in 3% BSA/TBST was used as a standard for absolute quantification. Following 1 hour incubation at room temperature, plates were washed with TBST. The primary detection antibody, sulfo-tagged goat anti-human TREM2 (R&D Systems), diluted in 3% BSA/TBST was added and incubated for 1 hour at room temperature. After washing with TBST, MSD plates were developed using 2×MSD read buffer T, followed by detection using an MSD Sector plate reader. MSD values were converted to absolute quantities of sTREM2 by fitting a standard curve using Prism 7.0 software (Graphpad). Modulation of TREM2 shedding was represented as a ratio to cells cultured with no specific TREM2 antibody in the media.

T3 sequence (O43914 22-113 partner, one chain of several): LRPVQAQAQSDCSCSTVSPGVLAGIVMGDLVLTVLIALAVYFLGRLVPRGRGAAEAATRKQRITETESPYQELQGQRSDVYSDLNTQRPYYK

| Molecule | Bin by Octet (hTREM2 [1]) | effect on lipid ligand activation of TREM2 (in words) (TREM2) | Slope + Liposome (TREM2) | ka (hTREM2 [2]) [M⁻¹ s⁻¹] | kd (hTREM2 [2]) [s⁻¹] | STREM2 (soluble TREM2 (sTREM2)) |
| --- | --- | --- | --- | --- | --- | --- |
| B1 | 3 | at least an additive effect | 94 | 480000 | 0.019 | NC |
| B2 | 1-2 | – | – | – | – | NC |
| B3 | – | at least an additive effect | 878 | 150000 | 0.00034 | NC |
